Series [1] deals with T1, H16_B1672 (HTH XRE-family like protein) (Ralstonia eutropha H16) (UniProt Q0K0L7).
T1 sequence: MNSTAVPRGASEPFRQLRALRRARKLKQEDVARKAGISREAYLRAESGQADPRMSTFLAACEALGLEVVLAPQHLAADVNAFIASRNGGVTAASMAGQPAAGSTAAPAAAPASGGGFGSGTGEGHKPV
The experiment in a line: EMSA. To be noted: EMSA: labeled DNA in TBE/glycerin-bromophenol blue with herring sperm DNA, 15 min at 30 C, 6% native PAGE at 4 C (protein eluted in 100 mM Tris-HCl pH 8, 150 mM).

The target in series [2] is T2, H16_B0227 (H-NS-like DNA-binding protein) (Ralstonia eutropha H16) (UniProt Q0K4P6).
T2 sequence: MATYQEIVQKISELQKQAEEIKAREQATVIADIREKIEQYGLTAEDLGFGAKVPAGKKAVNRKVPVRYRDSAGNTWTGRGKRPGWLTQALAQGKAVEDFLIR
Kind of series: EMSA. Conditions: EMSA: labeled DNA in TBE/glycerin-bromophenol blue with herring sperm DNA, 15 min at 30 C, 6% native PAGE at 4 C (protein eluted in 100 mM Tris-HCl pH 8, 150 mM).

Series [3] concerns the target T3, PpiB (peptidyl-prolyl cis-trans isomerase) (Ralstonia eutropha H16?) (UniProt Q0KCB2).
T3 sequence: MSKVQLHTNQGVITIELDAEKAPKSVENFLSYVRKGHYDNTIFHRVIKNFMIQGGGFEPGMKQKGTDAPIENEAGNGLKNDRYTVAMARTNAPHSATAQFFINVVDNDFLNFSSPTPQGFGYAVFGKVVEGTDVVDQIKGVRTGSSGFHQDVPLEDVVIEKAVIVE
Kind of series: EMSA. To be noted: EMSA: labeled DNA in TBE/glycerin-bromophenol blue with herring sperm DNA, 15 min at 30 C, 6% native PAGE at 4 C (protein eluted in 100 mM Tris-HCl pH 8, 150 mM).

The target in series [4] is T4, H16_B1672 (HTH XRE-family like protein) (Ralstonia eutropha H16, UniProt Q0K0L7 1-128).
T4 sequence: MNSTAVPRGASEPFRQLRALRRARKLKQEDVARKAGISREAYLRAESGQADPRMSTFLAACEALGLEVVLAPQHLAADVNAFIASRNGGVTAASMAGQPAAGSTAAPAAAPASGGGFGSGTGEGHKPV
The experiment in a line: EMSA. To be noted: EMSA: labeled DNA in TBE/glycerin-bromophenol blue with herring sperm DNA, 15 min at 30 C, 6% native PAGE at 4 C (protein eluted in 100 mM Tris-HCl pH 8, 150 mM).

Series [5] addresses T4, H16_B1672 (HTH XRE-family like protein). The experiment in a line: EMSA; EMSA: labeled DNA in TBE/glycerin-bromophenol blue with herring sperm DNA, 15 min at 30 C, 6% native PAGE at 4 C (protein eluted in 100 mM Tris-HCl pH 8, 150 mM NaCl, 1 mM EDTA, 2.5 mM desthiobiotin); pull-down: crude extract, 0.5x TBE, salmon sperm DNA, 1 h at 8 C. To be noted: protein: recombinant; tags: Strep-tag; chain copies: 2; label: 5'-32P on MG0235; blunt. Background: In EMSA bound probe runs differently from free probe, usually more slowly.

For orientation: Kd means the concentration at which binding is half-saturated.

For the molecule “ATCGAATTCGGACCCGCGTCCGAGGTATCGCAGCGCCTGGCTGACATCATGCTTGAGGCGTTGCGTCCAGTGTGATGGCGGCGGCGGGATGGCTGGTCACGCCCTATCGGATCGGCGGTGAACCATCGAATTCCGGCCGTTCACGTAACAGGATGCGGAAGACCGGTACGGGGTCGCAAGCAAGCGGGCCCCGCCAGCGGCGCGGCGCTTGATGTTTGGCGTTGCAGCAAGGCCTGTCCGACATATAGTGAAATCCTGGC (double strand) [PphaZ3 PCR fragment, EMSA]”, the binding entry in series [1], in series [2] and in series [3] was “no binding” each time.

For the molecule “ATCGGATCCGGGTGCTGCGCAATGCGGGCTTCAGCGCAGTTGGCGTGCCCGACAGCCGCATGGCCGGCTTCGTGCAAGGTGGGCGGGCGGGCGACAGGCTTCTGCCGCGGGTGCGTAGGTGGGAAGGTGGCGCTGGTGCACTGAGAAGTGCTGCGCGCGGCTCAGGTGCCGTCGATGTCGAATGGACTGGCTGCGGGAGGCTCCGGTCGAATTCGAT (double strand) [PphaZ5 PCR fragment, EMSA]”, the Kd in series [1] was 1500 nM. Also, the binding entry in series [2] and in series [3] was “no binding” each time.

Consider PphaZ5 PCR fragment, EMSA, for which, in series [4], the Kd is 1500 nM.

B1: PphaP1 100-mer (MG0235/MG0236), EMSA (dsDNA)
DNA 1: TGGCGTCACAGCCGCTCCCGTGTATCGCCAGCAACGTTGTTTGTGCATTGCACAAAATCCACTTGACATTGGATCTGGCGCCCCTAAAATAGGAATTGTT
DNA 2: AACAATTCCTATTTTAGGGGCGCCAGATCCAATGTCAAGTGGATTTTGTGCAATGCACAAACAACGTTGCTGGCGATACACGGGAGCGGCTGTGACGCCA
With B1, the Kd in series [5] was 175 nM.
